Reference: PMC4788467 (Leukemia, 2015)
Numbering of substitutions follows the chain as printed. Numbers in names are those of the source.

B1: S3.6 scFv (scFv, V domains shown)
VH: EVQLLESGGGLVQPGGSLRLSCAASGFTFSSYAMSWVRQAPGKGLEWVSLIDPWGQETLYADSVKGRFTISRDNSKNTLYLQMNSLRAEDTAVYYCAKLTGRFDYWGQGTLVTVSS
VL: DIQMTQSPSSLSASVGDRVTITCRASQSISNYLNWYQQKPGKAPKLLIYSASQLQSGVPSRFSGSGSGTVFTLTISSLQPEDFATYYCQQGPGTPNTFGQGTKVEIK
B2: Q2L scFv-Fc (Fc fusion)
VH: B1 VH
VL: B1 VL with N31S, Q53L, V70D
B3: Q1L scFv (scFv, V domains shown)
VH: B1 VH
VL: B1 VL with N31S, V70D
B4: Q2L scFv (scFv, V domains shown)
VH: B1 VH
VL: B1 VL with N31S, Q53L, V70D
B5: S3.1 scFv (scFv, V domains shown)
VH: B1 VH with R87G
VL: B1 VL with N31S, V70D, S77N
B6: S3.3 scFv (scFv, V domains shown)
VH: B1 VH
VL: B1 VL with D1N, N31S, Q53L, S65N, V70D

Key:
[1] = target: biotinylated soluble HLA-A2/WT1_(126) (…) complex (Homo sapiens, HLA-A*02:01, biotin (the complex is biotinylated; site not stated)); assay: SPR
[2] = target: HLA-A2/WT1 187-195 (…) monomer (Homo sapiens, HLA-A*02:01, biotin (the complex is biotinylated; site not stated)); assay: ELISA
[3] = target: HLA-A2/WT1 235-243 (…) monomer (Homo sapiens, HLA-A*02:01, biotin (the complex is biotinylated; site not stated)); assay: ELISA
[4] = target: T1, WT1 126-134 (RMFPNAPYL) peptide alone (human); assay: ELISA
T1 chain: RMFPNAPYL

Row | Kd [1] [nM] | koff [1] [s⁻¹] | kon [1] [M⁻¹ s⁻¹] | binding result [2] | binding result [3] | binding result [4] | Binder
1 | 14.1 | 0.00177 | 126000 |  |  |  | B1
2 | 0.002 | 1.15e-06 | 484000 | no binding | no binding | no binding | B2
3 | 58.3 |  | 94300 |  |  |  | B3
4 | 3.08 | 0.000355 | 115000 | no binding | no binding | no binding | B4
5 | 12.9 | 0.00191 | 148000 |  |  |  | B5
6 |  | 5.35e-05 | 22000 |  |  |  | B6
